Reference: patent publication US20100303790A1, “USE OF BILIVERDIN REDUCTASE (BVR) AND BVR PEPTIDE FRAGMENTS TO TREAT CORONARY DISORDERS” (UNIVERSITY OF ROCHESTER, priority 2009, published 2010)
Entries after “also recorded” stand apart in the source; their conditions may differ. Where a SMILES comes first, the peptide text is derived from it. The star is where a group is joined. Cbz = O=C(OCc1ccccc1)*

Columns and labels:
[1] = system: rat neonatal cardiomyocytes; assay: BVR, HO-2 and HO-1 protein levels in rat neonatal cardiomyocytes (western blot); assay type: cell-based; conditions: for HO-2 protein level: MG132 50 μg/ml; for effect on isoproterenol-induced BVR protein expression / effect on isoproterenol-induced HO-2 protein expression: 10 μM isoproterenol, western blot
Description: Neonatal Rat Cardiomyocytes: Primary cultures of neonatal rat cardiomyocytes were prepared as described previously (Ding et al., “Functional Role of Phosphodiesterase 3 in Cardiomyocyte Apoptosis: Implication in Heart Failure,” Circulation 111:2469-2476 (2005) which is hereby incorporated by reference in its entirety). Briefly, fragmented ventricular tissue from 1-2 day old Sprague-Dawley rats was subjected to multiple rounds of enzymatic digestion with collagenase II (Worthington, Lakewood, N.J.). The cells were then collected by low speed centrifugation at 4° C. Non-myocytes were removed by two rounds of pre-plating the cells on culture dishes. The enriched cardiomyocytes were cultured in DMEM with 10% FBS and 10% horse serum. The day after cell adhesion, 10 μM cytosine 1-β-D-arabinofuranoside (Sigma, St. Louis, Mo.) was added to inhibit the growth of contaminating non-myocytes.
Plasmids and Constructs: Adenovirus for expression of an endogenous PKA inhibitor (PKA251 bp) was prepared as described previously (Ding et al., “Functional Role of Phosphodiesterase 3 in Cardiomyocyte Apoptosis: Implication in Heart Failure,” Circulation 111:2469-2476 (2005), which is hereby incorporated by reference in its entirety). Rat BVR and HO-2 siRNA were designed based on the human sequences (Miralem et al., “Small Interference RNA-Mediated Gene Silencing of Human Biliverdin Reductase, but not that of Heme Oxygenase-1, Attenuates Arsenite-Mediated Induction of the Oxygenase and Increases Apoptosis in 293A Kidney Cells,” J Biol Chem 280:17084-17092 (2005), which is hereby incorporated by reference in its entirety). The BVR targeting site is at nucleotides 94-114, and the HO-2 targeting site is at nucleotides 73-93, downstream of the start codon in each case. Oligonucleotides containing the sequence of a 21 nucleotide small interference RNA were synthesized as follows: BVR siRNA, 5′-GATCCCC ([…]) TTCAAGAG ([…]) TTTTTGGAAA (SEQ ID NO:61) and 5′-AGCTTTTCCAAAAA ([…]) TCTCTTGAA ([…]) GGG (SEQ ID NO:62; HO-2 siRNA, 5′-GATCCCC ([…]) TTCAAGAGA ([…]) TTTTTGGAAA (SEQ ID NO:63) and 3′-AGCTTTTCCAAAAA ([…]) TCTCTTGAA ([…]) GGG (SEQ ID NO:64). Complementary oligonucleotides were annealed, then ligated into pSuper-Retro vector (OligoEngine Co. Seattle, Wash.). E. coli clones containing the desired constructs were identified by restriction analysis and verified by DNA sequencing. The retroviral DNA vectors for generating BVR si-rRNA and […] were transfected into the HEK293A packaging cell line, and the supernatant containing the expressed si-rBVR or si-rHO-2 retrovirus was then titrated in NIH3T3 cells. Retrovirus expressing siRNA was used to infect cells at a multiplicity of infection of 4 plaque-forming units/cell. The plasmid pcDNA-hBVR has previously been described (Lerner-Marmarosh et al., “Human Biliverdin Reductase: A Member of the Insulin Receptor Substrate Family with Serine/Threonine/Tyrosine Kinase Activity,” Proc Natl Acad Sci US A 102:7109-7114 (2005), which is hereby incorporated by reference in its entirety); pcDNA-hHO2 was constructed by cloning the HO-2 open reading frame into pcDNA3. […]

[2] = biological target: T1, hBVR-derived peptide KYCCSRK^296
T1 chain: KYCCSRK

[3] = biological target: T2, hBVR-derived peptide KKRILHC^281
T2 chain: KKRILHC

[4] = system: rat neonatal cardiomyocytes; assay: Apoptosis of cardiomyocytes (cleaved caspase-3, TUNEL, DNA electrophoresis); assay type: cell-based; conditions: for DNA fragmentation by electrophoresis of genomic DNA: ISO treatment coupled with siRNA; for number of cardiac apoptotic cells (TUNEL): siRNA followed by isoproterenol, relative to absence of ISO stimulation; for level of cleaved caspase-3 protein: with 10 μM isoproterenol, 24 hours
Description: Western Blot Analysis: Cell lysates were prepared by homogenization in RIPA buffer (40 mM Tris-HCl, pH 7.5, 1 mM EDTA, 1 mM DTT, 0.1 mM Na3VO4, 10 μg/ml aprotinin, 5 μg/ml pepstatin, 20 μg/ml leupeptin, 1 mM bezamidine followed by centrifugation at 800×g for 10 minutes at 4° C. (Ding et al., “Functional Role of Phosphodiesterase 3 in Cardiomyocyte Apoptosis: Implication in Heart Failure,” Circulation 111:2469-2476 (2005), which is hereby incorporated by reference in its entirety). Supernatant proteins were resolved by SDS-PAGE and transferred to nitrocellulose. Western blots were examined using antibodies against β-actin (Cell Signaling), BVR (Huang et al., “Detection of 10 Variants of Biliverdin Reductase in Rat Liver by Two-Dimensional Gel Electrophoresis,” J Biol Chem 264:7844-7849 (1989), which is hereby incorporated by reference in its entirety), HO-1, HO-2 (Panahian et al., “Site of Injury-Directed Induction of Heme Oxygenase-1 and -2 in Experimental Spinal Cord Injury Differential Functions in Neuronal Defense Mechanisms?” J Neurochem 76:539-554 (2001), which is hereby incorporated by reference in its entirety), and cleaved caspase-3 (Cell Signaling, Beverly Mass.). The secondary antibody was horseradish peroxidase-conjugated goat anti-rabbit IgG (1:2,000, Bio-Rad).
Analysis of Apoptosis: The terminal deoxyribonucleotide transferase-mediated dUTP nick-end labeling (TUNEL) assay was used to detect in situ DNA fragmentation, using the In Situ Cell Death Detection Kit (Roche) as described previously (Ding et al., “Functional Role of Phosphodiesterase 3 in Cardiomyocyte Apoptosis: Implication in Heart Failure,” Circulation 111:2469-2476 (2005), which are hereby incorporated by reference in their entirety). In addition, the cells were stained for cardiomyocyte-specific sarcomeric α-actinin with the antibody EF-53 to distinguish cardiomyocytes from contaminating fibroblasts; and only EF-53 positive cells were counted. Three independent experiments were performed and an average of 1,000 EF-53 positive cells from random fields were analyzed.
DNA Electrophoresis: Total cellular DNA was isolated from untreated and treated cells by lysis in 10 mM Tris-HCl, pH 7.8; 1 mM, EDTA, 10 mM NaCl, 1% (w/v) SDS and 1 mg/ml proteinase K at 60° C. for 2 hours. The lysate was extracted twice each with phenol-choloroform (1:1, v/v) and chloroform, followed by precipitation with ethanol. The precipitate was collected by centrifugation, washed once in 70% ethanol, and resuspended in TE containing 1 mg/ml RNase at 37° C. for 30 min. DNA was resolved by electrophoresis in 2.0% agarose gels containing ethidium bromide.
It was noted that the level of cleaved caspase-3 protein, a marker for apoptosis, was increased by the inhibition of isoproterenol-induced expression of either BVR or HO-2 using siBVR or si-rHO-2, respectively (FIG. 6A). […] That apoptosis was occurring in cardiomyocytes, per se, was determined by triple staining of the cells with anti-α-actinin antibody to detect cardiomyocytes, TUNEL staining for cells undergoing apoptosis, and DAPI to detect nuclei (FIG. 6C). The merged images in FIG. 6C clearly indicate that the cardiomyocytes are undergoing apoptosis.

With CC(C)C[C@@H](C=O)NC(=O)[C@H](CC(C)C)NC(=O)[C@H](CC(C)C)NC(=O)OCc1ccccc1 [MG132] (Cbz-Leu-Leu-Leu-aldehyde) the HO-2 protein level ([1]; BVR gene expression inhibited by si-BVR) was “increased the HO-2 protein levels” and the HO-2 protein level ([1]; absence of isoproterenol stimulation) was “increased”.

B1: rat biliverdin reductase (BVR), endogenous in perfused rat heart (protein)
chain: AEPKRKFGVVVVGVGRAGSVRLRDLKDPRSAAFLNLIGFVSRRELGSLDEVRQISLEDALRSQEIDVAYICSESSSHEDYIRQFLQAGKHVLVEYPMTLSFAAAQELWELAAQKGRVLHEEHVELLMEEFEFLRREVLGKELLKGSLRFTASPLEEERFGFPAFSGISRLTWLVSLFGELSLISATLEERKEDQYMKMTVQLETQNKGLLSWIEEKGPGLKRNRYVNFQFTSGSLEEVPSVGVNKNIFLKDQDIFVQKLLDQVSAEDLAAEKKRIMHCLGLASDIQKLCHQKK
For B1, the “BVR activity (rate of conversion of biliverdin to bilirubin at pH 6.7, NADH cofactor) in perfused rat heart” value [2] was “Treatment of the heart with peptide KYCCSRK^296 alone increased BVR activity” and the “BVR activity (rate of conversion of biliverdin to bilirubin at pH 6.7, NADH cofactor) in perfused rat heart” value [3] was “peptide KKRILHC^281 blocked the activity of BVR, whether ISO was present or not”.

B2: si-rBVR: retrovirus-expressed siRNA against rat BVR (SEQ ID NO:61, 62) (nucleic acid)
chain 1: GATCCCCTCTGCAGCATTCCTGAACCTGTTCAAGAGACAGGTTCAGGAATGCTGCAGATTTTTGGAAA
chain 2: AGCTTTTCCAAAAATCTGCAGCATTCCTGAACCTGTCTCTTGAACAGGTTCAGGAATGCTGCAGAGGG
modifications: the letters are possibly those of the target site
B2 was tested, and the “effect on isoproterenol-induced BVR protein expression” value [1] was “efficiently blocked”, the “effect on isoproterenol-induced HO-2 protein expression” value [1] was “effectively blocked; also recorded: also blocked” and the “DNA fragmentation by electrophoresis of genomic DNA” value [4] was “DNA fragmentation could be detected”. The “number of cardiac apoptotic cells (TUNEL)” value [4] was “increase” and the “level of cleaved caspase-3 protein” value [4] was “increased”.

B3: si-rHO-2: retrovirus-expressed siRNA against rat HO-2 (SEQ ID NO:63, 64) (nucleic acid)
chain 1: GATCCCCGAAAACCATACCAAAATGGCATTCAAGAGATGCCATTTTGGTATGGTTTTCTTTTTGGAAA
chain 2: AGCTTTTCCAAAAAGAAAACCATACCAAAATGGCATCTCTTGAATGCCATTTTGGTATGGTTTTCGGG
modifications: the letters are possibly those of the target site
B3 was tested, and the “effect on isoproterenol-induced BVR protein expression” value [1] was “no effect”, the “effect on isoproterenol-induced HO-2 protein expression” value [1] was “ablated” and the “DNA fragmentation by electrophoresis of genomic DNA” value [4] was “DNA fragmentation could be detected”. The “number of cardiac apoptotic cells (TUNEL)” value [4] was “increase” and the “level of cleaved caspase-3 protein” value [4] was “increased”.
